Results as given in PMC11279923, “Assessment of Radiolabelled Derivatives of R954 for Detection of Bradykinin B1 Receptor in Cancer Cells: Studies on Glioblastoma Xenografts in Mice” (Pharmaceuticals, 2024).
Where two headings read alike, the source gives them in different places. Non-standard residues stand in square brackets, D forms with d. Residues, ends and D or L forms follow the SMILES beside them. *: point of attachment. DOTA = O=C(O)CN1CCN(CC(=O)O)CCN(CC(=O)*)CCN(CC(=O)O)CC1; Oic = O=C(O)[C@@H]1C[C@@H]2CCCC[C@@H]2N1; d2Nal = N[C@H](Cc1ccc2ccccc2c1)C(=O)O; αMeF = C[C@](N)(Cc1ccccc1)C(=O)O; Orn = NCCC[C@H](N)C(=O)O; Ahx = NCCCCCC(=O)O

Tests used:
B1R [1] = conditions: B1R agonist; cited from earlier work
U87MG cells = experiment: Blocking of [^111In]In-DOTA-Ahx-R954 cell accumulation by B1R antagonist or agonist; format: cell-based, human; conditions: 100 µM blocker, 120 min, n = 4
Protocol: (§1) Human glioblastoma cell lines U87MG and U251MG were obtained from the American Type Culture Collection (Manassas, VA, USA) and kept under standard cell culture conditions (5% CO2, 37 °C). Cells were cultured in Eagle’s minimum essential medium (E-MEM; FUJIFILM Wako Pure Chemical Co.) supplemented with 10% v/v foetal bovine serum (BioWest S.A.S, Nuaillé, France), 1% v/v nonessential amino acids (FUJIFILM Wako Pure Chemical Co.), 1 mM sodium pyruvate (FUJIFILM Wako Pure Chemical Co.), and 1% v/v penicillin–streptomycin (10,000 unit-10 mg/mL; FUJIFILM Wako Pure Chemical Co.). Cells were seeded at a density of 1 × 10^5 cells/well in Poly-D-Lysine 24-well plates (Corning Inc., Corning, NY, USA). After 24 h, the medium was removed, and the cells were washed with 500 μL of 0.01 M PBS (+) (FUJIFILM Wako Pure Chemical Co.) and incubated at 37 °C in 500 μL of Hanks Balanced Salt Solution (+) (HBSS (+); FUJIFILM Wako Pure Chemical Co.) for 10 min. […] The value at 0 min was determined by an assay performed using the same protocol as that used immediately after removing the incubation solution. Cell lysate radioactivity was measured using an auto-well gamma counter (2470 WIZARD^2; PerkinElmer, Inc., Shelton, CT, USA), and the protein content of the lysates was measured using a Pierce™ BCA protein assay kit (Thermo Fisher Scientific, Inc., Waltham, MA, USA). […]

U251MG cells = experiment: as above; format: cell-based, human; conditions: 100 µM blocker, 120 min, n = 4
Protocol: as §1

B1R [2] = target: T1, B1R (Homo sapiens, UniProt P46663); design: could detect B1R endogenously expressed in glioblastoma cells; conditions: B1R+ HEK293T cell membrane; read-out: binding affinity (Kd); cited from earlier work
T1 sequence (P46663 1-353): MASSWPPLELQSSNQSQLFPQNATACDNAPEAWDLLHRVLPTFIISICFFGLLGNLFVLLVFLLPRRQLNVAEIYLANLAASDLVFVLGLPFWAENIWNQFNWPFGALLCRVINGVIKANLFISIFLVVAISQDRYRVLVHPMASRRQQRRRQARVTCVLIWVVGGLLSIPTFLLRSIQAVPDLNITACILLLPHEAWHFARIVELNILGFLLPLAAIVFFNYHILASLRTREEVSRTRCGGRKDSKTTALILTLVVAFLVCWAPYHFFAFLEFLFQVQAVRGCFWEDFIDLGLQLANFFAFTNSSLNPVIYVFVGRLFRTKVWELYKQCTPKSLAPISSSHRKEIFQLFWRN
Source text: (§2) Our study has several potential limitations. […] Although we could not evaluate the diagnostic utility of [^111In]In-DOTA-Ahx-R954 by comparing it with previously reported probes for SPECT and PET using parameters obtained under the same experimental conditions, improving the ...

B1R [3] = target: T1, B1R; design: could detect B1R endogenously expressed in glioblastoma cells; host or cells: U87MG human glioblastoma cells (intact, adherent); conditions: lung fibroblast cell membrane; read-out: binding affinity (Kd); cited from earlier work
Source text: as §2

B1R [4] = target: T1, B1R; experiment: Saturation binding assay with Scatchard analysis on U87MG cells; design: could detect B1R endogenously expressed in glioblastoma cells; host or cells: U87MG human glioblastoma cells (intact, adherent); conditions: tracer 0.7-358 nM, NSB with 100 µM R954, Scatchard analysis, mean of three independent experiments
Protocol: The affinity of [^111In]In-DOTA-Ahx-R954 for B1R in the cells was measured using an R954 saturation assay with increasing concentrations of [^111In]In-DOTA-Ahx-R954 (range 0.7–358 nM). The Scatchard plot was used to estimate the Kd and Bmax values. The parameters were presented as means of three independent experiments (one assay performed on type I collagen-coated plates and two assays performed on Poly-D-Lysine plates).

U87MG tumour xenografts = test system: U87MG tumour xenografts; design: species or system BALBc nu/nu male mice; conditions: mouse, in vivo
Protocol: Five-week-old BALBc nu/nu male mice (Japan SLC, Inc., Hamamatsu, Japan) were xenografted by subcutaneous injection of U87MG cells (5 × 10^6 cells per 50 μL of culture medium) into their right hind legs. The mice were subjected to biodistribution studies when the tumour weight reached 0.1−0.5 g.
Mice bearing U87MG tumour xenografts were injected via the tail vein with 100 μL of [^111In]In-DOTA-Ahx-R954 (30–74 kBq; 0.01–0.02 nmol) and were sacrificed and dissected 1, 4, and 24 h after administration. […] R954 was co-injected with [^111In]In-DOTA-Ahx-R954, and mice were sacrificed and dissected 1 and 4 h after administration. The tissues of interest were removed and weighed, and radioactivity was determined using an auto-well gamma counter. The results are presented as a percentage of the injected dose per gram (% dose/g).

In the case of [des-Arg^10]-kallidin, the pEC50 (B1R [1]) is listed as 9.7, the “change in accumulated radioactivity in blocking study” value (U87MG cells) is listed as “significant decrease” and the “change in accumulated radioactivity in blocking study” value (U251MG cells) is listed as “not in U251MG cells”.

For [^3H](des-Arg^10, Leu^9)-kallidin, the Kd (B1R [2]) is given as 1.9 ± 0.5 nM and the Kd (B1R [3]) is given as 0.33 ± 0.07 nM.

With `CC[C@H](C)[C@H](NC(=O)[C@@H](Cc1ccc2ccccc2c1)NC(=O)[C@H](CO)NC(=O)[C@](C)(Cc1ccccc1)NC(=O)CNC(=O)[C@@H]1CCCN1C(=O)[C@@H]1C[C@@H]2CCCC[C@@H]2N1C(=O)[C@H](CCCNC(=N)N)NC(=O)[C@H](CCCN)NC(=O)CCCCCNC(=O)CN1CCN(CC(=O)O)CCN(CC(=O)O)CCN(CC(=O)O)CC1)C(=O)O` [[^111In]In-DOTA-Ahx-R954, metal not drawn] ({DOTA-Ahx}-[Orn]R[Oic]PG[αMeF]S[d2Nal]I-OH) the Kd (B1R [4]) was 54.1 ± 18.9 nM, the blood-brain barrier penetration (U87MG tumour xenografts) was “poor” and the “reduction of radioactivity level in plasma compared to 1 h” value (U87MG tumour xenografts) was 98%. For the same compound, the “reduction of radioactivity level in tumour compared to 1 h” value (U87MG tumour xenografts) was 48%.
